Laboratory results as given in patent US20240034778A1 (REGENTS OF THE UNIVERSITY OF MICHIGAN, published 2024).

Experiments:
[1] = target: T1, Aβ fibrils (fibrils of Aβ1-42) (UniProt P05067 672-713); test: flow cytometry, antibody on Aβ fibril-coated streptavidin beads
T1 construct: domain: Aβ1-42; Fibrillar (aggregated) state of synthetic Aβ1-42; For flow cytometry the fibrils were doped with 1% biotinylated Aβ1-42 and held on streptavidin Dynabeads; for dot blots unlabeled fibrils were spotted on nitrocellulose; also called Aβ42 fibrils; fibrillar Aβ
Description: (§1) For affinity analysis, the binding of antibodies to Aβ fibrils was evaluated using streptavidin dynabeads and flow cytometry. Beads were immobilized with 1% biotinylated fibrils as described above. The fibril-coated beads were washed twice with PBSB and then blocked with 10% milk in PBS at room temperature for 1 hour with end-over-end mixing. Afterward, the beads were washed 2× with PBSB.
(§2) Antibodies were thawed and centrifuged at 21000× g for 5 minutes to remove aggregates. The supernatant was transferred to a new tube and the antibody concentration was determined by measuring absorbance at 280 nm. Antibody dilutions were made in PBSB. Fibril-coated beads (1.25×10⁵ beads per evaluated antibody concentration) were incubated with antibodies in 96 well plates (Greiner, 650261) in 1% milk for 3 hours at 25° C.(300 RPM). Next, the plates were centrifuged at 3500 RPM for 5 minutes, the supernatants were discarded, and the beads were washed once with ice-cold PBSB. After washing, the plates were spun down again and the beads with resuspended with 300× diluted goat anti-human Fc AF647 (Jackson Immunoresearch, 109-605-098) on ice for 4-5 minutes. […] Two independent repeats were performed with different batches of beads coated with Aβ fibrils.

[2] = target: T1, Aβ fibrils (fibrils of Aβ1-42); test: immunodot blot, antibody at 10 nM, 30 second exposure
Description: (§3) FIG. 6A includes images of an immunoblot analysis of the conformational and sequence specificity of the selected Aβ antibodies. Disaggregated Aβ and fibrillar Aβ, IAPP, and αSyn were immobilized on nitrocellulose membranes and probed with anti-Aβ antibodies (10 nM in PBS with 1% milk). The blots were imaged after relatively short exposure times (30 seconds) except for AF1 (45 minute exposure). A loading control blot was detected using colloidal silver stain. The experiments were repeated three times and a representative example is shown. FIG. 6B includes images of immunoblot analysis of the conformational and sequence specificity of the selected Aβ antibodies using a long exposure time. The blots were processed and imaged as described in FIG. 6A except that all of the blots were processed after a relatively long exposure time (45 minutes). A loading control blot was detected using colloidal silver stain. The experiments were repeated three times and a representative example is shown.
(§4) The conformational specificity of the selected antibodies was then assessed using immunodot blots (FIG. 6A).

[3] = target: T2, disaggregated Aβ (Aβ1-42) (UniProt P05067 672-713); test: immunodot blot, antibody at 10 nM, 45 minute exposure
T2 construct: domain: Aβ1-42; Same peptide as the fibrils, in the disaggregated (soluble) state; also called soluble Aβ; Aβ monomer
Description: as §3, §4

[4] = target: T1, Aβ fibrils (fibrils of Aβ1-42); test: flow cytometry, antibody on Aβ fibril-coated streptavidin beads (fibril batch of FIG. 10)
Description: as §1, §2

[5] = target: T1, Aβ fibrils (fibrils of Aβ1-42); test: flow cytometry, antibody on Aβ fibril-coated streptavidin beads (fibril batch of FIG. 5)
Description: as §1, §2

EC50 [1] [nM] | binding result [2] | binding result [3] | EC50 [4] [nM] | EC50 [5] [nM] | Binder
9 |  |  |  |  | crenezumab (antibody, V domains shown) VH: EVQLVESGGGLVQPGGSLRLSCAASGFTFSSYGMSWVRQAPGKGLELVASINSNGGSTYYPDSVKGRFTISRDNAKNSLYLQMNSLRAEDTAVYYCASGDYWGQGTTVTVSS VL: DIVMTQSPLSLPVTPGEPASISCRSSQSLVYSNGDTYLHWYLQKPGQSPQLLIYKVSNRFSGVPDRFSGSGSGTDFTLKISRVEAEDVGVYYCSQSTHVPWTFGQGTKVEIKR
 | binds | binds |  |  | Clone 101 (Fc fusion) VH: EVQLVESGGGLVQPGGSLRLSCAASGFNIKDTYIHWVRQAPGKGLEWVARIYPASGSTRYAGSVKGRFTISADTSKNTAYLQMNSLRAEDTAVYYCARDGYDGSYFVGYDYNDFYDYWGQGTLVTVSS VL: DIQMTQSPSSLSASVGDRVTITCRASQNVYSAVTWYQQKPGKAPKLLIYSASFLYSGVPSRFSGSRSGTDFTLTISSLQPEDFATYYCQQHSTYPPTFGQGTKVEIK
 |  |  | 18 | 8 | Clone 97 (Fc fusion, also called parental antibody (clone 97); 97 WT) VH: EVQLVESGGGLVQPGGSLRLSCAASGFNIKDTYIHWVRQAPGKGLEWVARIYPASGATRYADSVKGRFTISADTSKNTAYLQMNSLRAEDTAVYYCARDGYDGSYFVGYDYNDFYDYWGQGTLVTVSS VL: DIQMTQSPSSLSASVGDRVTITCRASQNVAYAVTWYQQKPGKAPKLLIYSASFLYSGVPSRFSGSRSGTDFTLTISSLQPEDFATYYCQQHSTYPPTFGQGTKVEIK
 | binds | binds |  |  | Clone 93 (Fc fusion) VH: EVQLVESGGGLVQPGGSLRLSCAASGFNIKDTYIHWVRQAPGKGLEWVARIYPSNGYTRYAGSVKGRFTISADTSKNTAYLQMNSLRAEDTAVYYCARDGYDGSYFVGYDYNDFYDYWGQGTLVTVSS VL: DIQMTQSPSSLSASVGDRVTITCRASQNVYNAVTWYQQKPGKAPKLLIYSASFLYSGVPSRFSGSRSGTDFTLTISSLQPEDFATYYCQQHNTYPPTFGQGTKVEIK
